# Experimental data from the supplement of paper PMC10201428.
# ± gives the standard deviation of the averaged measurements.
# Legend:
# [1] = test system: VchCAST RNA-guided transposition machinery (E. coli BL21(DE3) host, lacZ target); assay: relative integration efficiency (T-RL orientation) vs wild-type transposon end (log2 (normalized fold change)); transposon end mutated: right end (5 bp flank + 75 bp right end); higher = more efficient transposition
# In short: (§1)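 Relative integration efficiency is a fold change of output over input barcode abundance, normalised to reference barcodes and log-transformed. Input plasmids and genomic integration junctions were PCR-amplified and Illumina-sequenced from E. coli BL21(DE3) co-transformed with a T7-driven effector plasmid and pUC57 donor pools of 1549 left-end or 1849 right-end transposon variants. Plating was done with 0.1 mM IPTG at 37°C for 18 h, with two biological output replicates and four reference barcodes.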
# [2] = test system: VchCAST RNA-guided transposition machinery (E. coli BL21(DE3) host, lacZ target); assay: relative integration efficiency (T-LR orientation) vs wild-type transposon end (log2 (normalized fold change)); transposon end mutated: right end (5 bp flank + 75 bp right end); higher = more efficient transposition
# In short: as §1
Sequence,relative integration efficiency (log2) [1],relative integration efficiency (log2) [2]
ACATTTGTCGATACAACCCTAAAATGATAATTACACCCATAAATTGATAATTATCACACCCAATTTAACTATAACGCTCTGATCATAGTCAGACCAACATTGCTACGACCCGTATTCGCACCGACAC,-2.1 ± 0.33,1.04 ± 0.3
ACATTTGTCGATACAACCCTAAAATGATAATTACACCCATAAATTGATAATTATCACCCCCAATTTAACTATAACGCTCTGATCATAGTCAGACCAACATTGCTACGACCCGTATTCGCACCGACAC,-2.33 ± 0.4,0.88 ± 0.35
ACATTTGTCGATACAACCCTAAAATGATAATTACACCCATAAATTGATCATTATCACACCCAATTTAACTATAACGCTCTGATCATAGTCAGACCAACATTGCTACGACCCGTATTCGCACCGACAC,-3 ± 0.31,0.178 ± 0.16
ACATTTGTCGATACAACCCTAAAATGATAATTACACCCATAAATTGATCATTATCACCCCCAATTTAACTATAACGCTCTGATCATAGTCAGACCAACATTGCTACGACCCGTATTCGCACCGACAC,-2.5 ± 0.47,0.684 ± 0.37
ACATTTGTCGATCCAACCATAAAATGATAATTACACCCATAAATGGATAATTATCACACCCAATTTAACTATAACGCTCTGATCATAGTCAGACCAACATTGCTACGACCCGTATTCGCACCGACAC,-1.4 ± 0.23,1.38 ± 0.094
ACATTTGTCGATCCAACCATAAAATGATAATTACACCCATAAATGGATCATTATCACACCCAATTTAACTATAACGCTCTGATCATAGTCAGACCAACATTGCTACGACCCGTATTCGCACCGACAC,-2.08 ± 0.19,0.888 ± 0.17
ACATTTGTCGATCCAACCATAAAATGATAATTACACCCATAAATTCATAATTATCACACCCAATTTAACTATAACGCTCTGATCATAGTCAGACCAACATTGCTACGACCCGTATTCGCACCGACAC,-2.45 ± 0.51,0.641 ± 0.68
ACATTTGTCGATCCAACCATAAAATGATAATTACACCCATAAATTCATCATTATCACACCCAATTTAACTATAACGCTCTGATCATAGTCAGACCAACATTGCTACGACCCGTATTCGCACCGACAC,-2.47 ± 0.39,1.38 ± 0.015
ACATTTGTCGATCCAACCATAAAATGATAATTACACCCATAAATTGATAATTATCACACCCAATTTAACTATAACGCTCTGATCATAGTCAGACCAACATTGCTACGACCCGTATTCGCACCGACAC,-0.969 ± 0.28,2.2 ± 0.23
ACATTTGTCGATCCAACCATAAAATGATAATTACACCCATAAATTGATCATTATCACACCCAATTTAACTATAACGCTCTGATCATAGTCAGACCAACATTGCTACGACCCGTATTCGCACCGACAC,-1.61 ± 0.25,2.167 ± 0.0082
ACATTTGTGGATACAACCATAAAACGATAATTACACCCATAAATGGATAATTATCACACCCAATTTAACTATAACGCTCTGATCATAGTCAGACCAACATTGCTACGACCCGTATTCGCACCGACAC,-1.46 ± 0.2,1.3 ± 0.17
ACATTTGTGGATACAACCATAAAACGATAATTACACCCATAAATGGATCATTATCACACCCAATTTAACTATAACGCTCTGATCATAGTCAGACCAACATTGCTACGACCCGTATTCGCACCGACAC,-1.81 ± 0.3,0.737 ± 0.25
ACATTTGTGGATACAACCATAAAACGATAATTACACCCATAAATTCATAATTATCACACCCAATTTAACTATAACGCTCTGATCATAGTCAGACCAACATTGCTACGACCCGTATTCGCACCGACAC,-2.15 ± 0.21,0.933 ± 0.13
ACATTTGTGGATACAACCATAAAACGATAATTACACCCATAAATTCATCATTATCACACCCAATTTAACTATAACGCTCTGATCATAGTCAGACCAACATTGCTACGACCCGTATTCGCACCGACAC,-2.23 ± 0.37,1.17 ± 0.22
ACATTTGTGGATACAACCATAAAACGATAATTACACCCATAAATTGATAATTATCACACCCAATTTAACTATAACGCTCTGATCATAGTCAGACCAACATTGCTACGACCCGTATTCGCACCGACAC,-1.13 ± 0.22,2.04 ± 0.26
